The text below walks through data of the supplement of paper PMC9233669.

The subject of one series is biotinyl-Phe-oxazolone. As to the kind of experiment: self-aminoacylation, catalytic enhancement (BFO) (fold over background); higher = more active; k-Seq, kA / k0A0; sequences stand for … in GGGAAUGGAUCCACAUCUACGAAUUC…UUCACUGCAGACUUGACGAAGCUG
The gist of the method:
(§1)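 Mutagenized RNA pools (0.43 μM; 21-nt variable region) were treated with 2–1250 μM of each biotinyl-aminoacyl-oxazolone. Conditions were 50 μL HEPES/NaCl/KCl/MgCl2/CaCl2 buffer, 5% acetonitrile, pH 6.9–7.0, room temperature, 90 minutes. Catalytic enhancement, the median kA relative to the uncatalyzed rate, was derived from streptavidin capture, qPCR and Illumina sequencing.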

In another series the test system is biotinyl-Trp-oxazolone. Nature of the series: self-aminoacylation, catalytic enhancement (BWO) (fold over background); higher = more active; k-Seq, kA / k0A0; sequences stand for … in GGGAAUGGAUCCACAUCUACGAAUUC…UUCACUGCAGACUUGACGAAGCUG
The gist of the method: as §1

Fewer inactive variants are shown than the library holds.

Take “CUCCUUCAAACAAUCGGUCAG [Fam1A.1 aminoacylation ribozyme variant]”: the self-aminoacylation with biotinyl-Phe-oxazolone is 14; in the series with biotinyl-Trp-oxazolone, 7.87.

On to “CCAAACUUCAAGCAAUCAGUC [Fam1B.1 aminoacylation ribozyme variant]”, for which the self-aminoacylation with biotinyl-Phe-oxazolone was determined as 9.55; with biotinyl-Trp-oxazolone, 3.03.

Consider “AAUUUUGCGAAUAGUCGCAAG [Fam3.1 aminoacylation ribozyme variant]”, for which the self-aminoacylation in the series on biotinyl-Trp-oxazolone turned out to be 2.

On to “CUACUUCAAAAAAUCGGUCGG [Fam1A.1 aminoacylation ribozyme variant]”, for which the values for the self-aminoacylation in the series on biotinyl-Phe-oxazolone and in the series with biotinyl-Trp-oxazolone were 4.54 and 5.6, respectively.

As to “CUCCUUCAAACAAUCGGACUG [Fam1A.1 aminoacylation ribozyme variant]”, the self-aminoacylation worked out at 12.9 with biotinyl-Phe-oxazolone and 8.83 in the series on biotinyl-Trp-oxazolone.

“CCACAUUUCAACCAAUCGGUC [Fam1B.1 aminoacylation ribozyme variant]”: the self-aminoacylation with biotinyl-Phe-oxazolone was 7.78; in the series on biotinyl-Trp-oxazolone, 5.58.

On to “UUAGUUCAAACAAUCGGUCUG [Fam1A.1 aminoacylation ribozyme variant]”, for which the self-aminoacylation in the series with biotinyl-Phe-oxazolone was 4.01; in the series on biotinyl-Trp-oxazolone, 2.94.

As to “CCACACUUCAAACGAUCGGUC [Fam1B.1 aminoacylation ribozyme variant]”, the self-aminoacylation was determined as 3.66 in the series on biotinyl-Phe-oxazolone and 4.08 with biotinyl-Trp-oxazolone.

As for “CCACACUCCAGGCAAUCGGUC [Fam1B.1 aminoacylation ribozyme variant]”, in the series with biotinyl-Trp-oxazolone, the self-aminoacylation is 2.04.

As to “AUUAGCCUGGUCGUCGAGUGA [Fam2.1 aminoacylation ribozyme variant]”, the self-aminoacylation in the series with biotinyl-Phe-oxazolone was found to be 7.67; in the series with biotinyl-Trp-oxazolone, 2.09.

Turning to “CCACACUUCAAUAAAUCGGUC [Fam1B.1 aminoacylation ribozyme variant]”, the values for the self-aminoacylation with biotinyl-Phe-oxazolone and in the series on biotinyl-Trp-oxazolone were 11.7 and 6.22, respectively.

As for “AUUACGCUGCUCAUCGAGUGA [Fam2.1 aminoacylation ribozyme variant]”, the self-aminoacylation with biotinyl-Trp-oxazolone worked out at 2.69.

Take “CUACUUCAAAUAAUCGGUCUU [Fam1A.1 aminoacylation ribozyme variant]”: the self-aminoacylation in the series with biotinyl-Phe-oxazolone came out at 9.54; in the series with biotinyl-Trp-oxazolone, 5.86.

Consider “AAGUGUGCUAAUAGUCACAAG [Fam3.1 aminoacylation ribozyme variant]”, for which the self-aminoacylation was 6.87 in the series with biotinyl-Phe-oxazolone and 3.91 with biotinyl-Trp-oxazolone.

“ACACAGUUCAAGCAAUCGGUC [Fam1B.1 aminoacylation ribozyme variant]”: the self-aminoacylation stood at 3.76 with biotinyl-Phe-oxazolone and 3.46 in the series with biotinyl-Trp-oxazolone.

In the case of “CUCCUUCAAACAAUCGGUCCG [Fam1A.1 aminoacylation ribozyme variant]”, the results for the self-aminoacylation in the series on biotinyl-Phe-oxazolone and in the series with biotinyl-Trp-oxazolone were 6.9 and 6.67, respectively.

Regarding “CCACACGUCAAGCAAUCGGCC [Fam1B.1 aminoacylation ribozyme variant]”, the self-aminoacylation in the series with biotinyl-Phe-oxazolone came out at 3.91; with biotinyl-Trp-oxazolone it was 2.

Take “CGACACUUCAAGCAAUCGGUC [Fam1B.1 aminoacylation ribozyme variant]”: the results for the self-aminoacylation with biotinyl-Phe-oxazolone and in the series on biotinyl-Trp-oxazolone were 13.4 and 7.38, respectively.

“CUACUUCAGACAAUCGGCCUG [Fam1A.1 aminoacylation ribozyme variant]”: the results for the self-aminoacylation with biotinyl-Phe-oxazolone and in the series with biotinyl-Trp-oxazolone were 3.82 and 2.23, respectively.

As for “AAGUUGGCUAAUAGUCGCGAG [Fam3.1 aminoacylation ribozyme variant]”, the self-aminoacylation with biotinyl-Trp-oxazolone was 3.96.

On to “CUACUUCAAGUAAUCGGUCUG [Fam1A.1 aminoacylation ribozyme variant]”, for which the results for the self-aminoacylation in the series on biotinyl-Phe-oxazolone and in the series with biotinyl-Trp-oxazolone were 9.14 and 6.74, respectively.

In the case of “AAUUUUGCUAAUAGUCGCAAG [Fam3.1 aminoacylation ribozyme variant]”, the figures for the self-aminoacylation in the series on biotinyl-Phe-oxazolone and in the series on biotinyl-Trp-oxazolone were 5 and 2.43, respectively.

As to “CUACUUCAAACAAUCGGAAUG [Fam1A.1 aminoacylation ribozyme variant]”, the values for the self-aminoacylation in the series on biotinyl-Phe-oxazolone and with biotinyl-Trp-oxazolone were 7.74 and 4.46, respectively.

Consider “AGGUUUGCUCAUAGUCGCAAG [Fam3.1 aminoacylation ribozyme variant]”, for which the results for the self-aminoacylation in the series on biotinyl-Phe-oxazolone and with biotinyl-Trp-oxazolone were 2.95 and 2.45, respectively.

As for “CAACUUCAAACAAUCGCUCUG [Fam1A.1 aminoacylation ribozyme variant]”, the self-aminoacylation with biotinyl-Phe-oxazolone came out at 3.06; in the series with biotinyl-Trp-oxazolone it was 2.41.

“AAUACCCUGGUCAUCGAGUGC [Fam2.1 aminoacylation ribozyme variant]”: the self-aminoacylation with biotinyl-Phe-oxazolone is 3.36; in the series on biotinyl-Trp-oxazolone, 2.03.

Regarding “UCACCCUUCAAGCAAUCGGUC [Fam1B.1 aminoacylation ribozyme variant]”, the self-aminoacylation came to 10.5 with biotinyl-Phe-oxazolone and 6.03 in the series on biotinyl-Trp-oxazolone.

On to “AUACUUCAACCAAUCGGUCUG [Fam1A.1 aminoacylation ribozyme variant]”, for which the self-aminoacylation in the series with biotinyl-Phe-oxazolone was determined as 5.09; in the series on biotinyl-Trp-oxazolone, 4.18.

For the sequence “CUUCACCUAGGUCAUCGGGUC [Fam2.2 aminoacylation ribozyme variant]”, the self-aminoacylation in the series with biotinyl-Phe-oxazolone is 3.47; with biotinyl-Trp-oxazolone it was 2.29.

“CAACUUCAAACAAUCGGUCUA [Fam1A.1 aminoacylation ribozyme variant]”: the values for the self-aminoacylation in the series on biotinyl-Phe-oxazolone and in the series on biotinyl-Trp-oxazolone were 26.4 and 13.9, respectively.

Turning to “CCACUUCAAACAAUCGCUCUG [Fam1A.1 aminoacylation ribozyme variant]”, the self-aminoacylation was determined as 3.32 with biotinyl-Phe-oxazolone and 2.69 in the series with biotinyl-Trp-oxazolone.

With “ACACACUUCAAGGAAUCGGUC [Fam1B.1 aminoacylation ribozyme variant]”, the self-aminoacylation with biotinyl-Phe-oxazolone worked out at 3.08; with biotinyl-Trp-oxazolone, 2.96.

“CUACUUCAACCAAUCGGUGUG [Fam1A.1 aminoacylation ribozyme variant]”: the results for the self-aminoacylation in the series on biotinyl-Phe-oxazolone and in the series with biotinyl-Trp-oxazolone were 4.96 and 4.66, respectively.

In the case of “GUACGUCAAACAAUCGGUCUG [Fam1A.1 aminoacylation ribozyme variant]”, the self-aminoacylation in the series with biotinyl-Trp-oxazolone came to 2.71.

Turning to “AAGUUUUCUAAAAGUCGCAAG [Fam3.1 aminoacylation ribozyme variant]”, the values for the self-aminoacylation with biotinyl-Phe-oxazolone and in the series with biotinyl-Trp-oxazolone were 2.92 and 2.01, respectively.

Take “CUACUUCAAGAAAUCGGUCUG [Fam1A.1 aminoacylation ribozyme variant]”: the self-aminoacylation in the series on biotinyl-Phe-oxazolone came to 4.36; with biotinyl-Trp-oxazolone, 3.05.

As to “CUACCCUUCAAGCAAUCGGUC [Fam1B.1 aminoacylation ribozyme variant]”, the self-aminoacylation with biotinyl-Phe-oxazolone was 8.35; in the series with biotinyl-Trp-oxazolone, 5.52.

As for “CUACUUCAAAAAAUCGGUCUC [Fam1A.1 aminoacylation ribozyme variant]”, the self-aminoacylation in the series on biotinyl-Phe-oxazolone was 8.87; in the series on biotinyl-Trp-oxazolone it was 5.93.

For the sequence “AAGUUUGCUAAUAUUCCCAAG [Fam3.1 aminoacylation ribozyme variant]”, the self-aminoacylation in the series on biotinyl-Trp-oxazolone came out at 2.1.

As to “AAGUUUGCAAAUAGUCGCCAG [Fam3.1 aminoacylation ribozyme variant]”, the self-aminoacylation in the series with biotinyl-Phe-oxazolone turned out to be 2.38; in the series with biotinyl-Trp-oxazolone, 2.05.

For the sequence “CUGCCUCAAACAAUCGGUCUG [Fam1A.1 aminoacylation ribozyme variant]”, the self-aminoacylation was 34.5 with biotinyl-Phe-oxazolone and 20.9 in the series on biotinyl-Trp-oxazolone.

Turning to “GUACUUCAAAUAAUCGGUCUG [Fam1A.1 aminoacylation ribozyme variant]”, the self-aminoacylation in the series with biotinyl-Phe-oxazolone was found to be 10.4; in the series on biotinyl-Trp-oxazolone, 10.7.

As for “CCACACUUCAAGCAAUCAGUC [Fam1B.1 aminoacylation ribozyme variant]”, the figures for the self-aminoacylation with biotinyl-Phe-oxazolone and with biotinyl-Trp-oxazolone were 21.5 and 6.45, respectively.

Turning to “CCACACUUCAAGAAAUCGGUC [Fam1B.1 aminoacylation ribozyme variant]”, the values for the self-aminoacylation in the series on biotinyl-Phe-oxazolone and with biotinyl-Trp-oxazolone were 10.8 and 6.66, respectively.

As for “CUACUUCAAGCAAUCGGUCUG [Fam1A.1 aminoacylation ribozyme variant]”, the self-aminoacylation in the series on biotinyl-Phe-oxazolone came to 13.6; in the series on biotinyl-Trp-oxazolone it was 7.74.

With “CGACUUCAAAAAAUCGGUCUG [Fam1A.1 aminoacylation ribozyme variant]”, the self-aminoacylation in the series with biotinyl-Phe-oxazolone was 15.3; with biotinyl-Trp-oxazolone, 14.

Take “AAGUUUGCUAAAAGUCGCCAG [Fam3.1 aminoacylation ribozyme variant]”: the self-aminoacylation in the series with biotinyl-Trp-oxazolone amounted to 2.25.

Regarding “CUACGUGAAACAAUCGGUCUG [Fam1A.1 aminoacylation ribozyme variant]”, the self-aminoacylation turned out to be 5.84 in the series with biotinyl-Phe-oxazolone and 2.03 with biotinyl-Trp-oxazolone.

For “CAGUUUGCUAAUAGUCGUAAG [Fam3.1 aminoacylation ribozyme variant]”, the self-aminoacylation in the series on biotinyl-Phe-oxazolone came to 5.91; with biotinyl-Trp-oxazolone it was 2.28.

For “AUACUUCAAACAAUCGGUCUU [Fam1A.1 aminoacylation ribozyme variant]”, the self-aminoacylation in the series on biotinyl-Phe-oxazolone worked out at 6.84; in the series on biotinyl-Trp-oxazolone, 4.01.

Take “AUAGUUCAAACAAUCGGUCUG [Fam1A.1 aminoacylation ribozyme variant]”: the values for the self-aminoacylation with biotinyl-Phe-oxazolone and in the series on biotinyl-Trp-oxazolone were 4.05 and 3.06, respectively.

“GAGUUUGCUAAUAGUCGAAAG [Fam3.1 aminoacylation ribozyme variant]”: the results for the self-aminoacylation with biotinyl-Phe-oxazolone and in the series with biotinyl-Trp-oxazolone were 13.3 and 5.05, respectively.

In the case of “CCACACUUCAAGAAAUCGGUU [Fam1B.1 aminoacylation ribozyme variant]”, the self-aminoacylation in the series on biotinyl-Trp-oxazolone worked out at 2.03.

For “AAGUAUGCUAAUAGUCGCCAG [Fam3.1 aminoacylation ribozyme variant]”, the self-aminoacylation with biotinyl-Trp-oxazolone was 3.29.

With “CUACAUCAAACAAUGGGUCUG [Fam1A.1 aminoacylation ribozyme variant]”, in the series on biotinyl-Phe-oxazolone, the self-aminoacylation came to 2.95.
